Laboratory results published in the MegaScale stability set (Tsuboyama et al. 2023).

B1: 6NMW (parent)
chain: QGDIVVALYPYDGIHPDDLSFKKGEKMKVLEEHGEWWKAKSLLTKKEGFIPSNYVAKLN

Variants of: B1
Test: folding stability dG (cDNA display proteolysis); higher = more stable
Conditions: PBS, room temperature

In order of falling “folding stability dG” value:
1. K28V  4.85 kcal/mol
2. S52K  4.84 kcal/mol
3. D3Y  4.84 kcal/mol
4. D17G  4.77 kcal/mol
5. K26W  4.72 kcal/mol
6. E32M  4.65 kcal/mol
7. N59C  4.64 kcal/mol
8. E32C  4.44 kcal/mol
9. K28W  4.43 kcal/mol
10. D12I  4.38 kcal/mol
11. A56M  4.36 kcal/mol
12. D12T  4.32 kcal/mol
13. Q1T  4.18 kcal/mol
14. L42C  4.16 kcal/mol
15. D18F  4.07 kcal/mol
16. A39C  4.07 kcal/mol
17. K28E  4.07 kcal/mol
18. D18C  4.07 kcal/mol
19. Q1W  4.06 kcal/mol
20. E35M  4.06 kcal/mol
21. N59P  3.88 kcal/mol
22. L58C  3.88 kcal/mol
23. N53H  3.87 kcal/mol
24. D12Y  3.86 kcal/mol
25. D12A  3.85 kcal/mol
26. E32N  3.83 kcal/mol
27. I14K  3.81 kcal/mol
28. Q1R  3.79 kcal/mol
29. D12W  3.78 kcal/mol
30. Q1M  3.74 kcal/mol
31. G2H  3.74 kcal/mol
32. D17E  3.72 kcal/mol
33. D17F  3.71 kcal/mol
34. Q1N  3.69 kcal/mol
35. D17T  3.68 kcal/mol
36. I14T  3.68 kcal/mol
37. L43R  3.66 kcal/mol
38. K45R  3.65 kcal/mol
39. K40F  3.63 kcal/mol
40. H15P  3.63 kcal/mol
41. A56L  3.61 kcal/mol
42. K57L  3.61 kcal/mol
43. A56E  3.61 kcal/mol
44. D18A  3.61 kcal/mol
45. K46L  3.56 kcal/mol
46. W36K  3.49 kcal/mol
47. E32W  3.48 kcal/mol
48. L8C  3.47 kcal/mol
49. K46M  3.47 kcal/mol
50. N53G  3.47 kcal/mol
51. E31A  3.46 kcal/mol
52. K22M  3.46 kcal/mol
53. K57V  3.39 kcal/mol
54. D17A  3.37 kcal/mol
55. D18G  3.33 kcal/mol
56. P10E  3.31 kcal/mol
57. P16A  3.29 kcal/mol
58. W36M  3.29 kcal/mol
59. D18W  3.29 kcal/mol
60. L30I  3.29 kcal/mol
61. K40W  3.24 kcal/mol
62. N59R  3.22 kcal/mol
63. V5F  3.21 kcal/mol
64. K22T  3.15 kcal/mol
65. E35G  3.14 kcal/mol
66. S20T  3.13 kcal/mol
67. K45T  3.1 kcal/mol
68. I14S  3.09 kcal/mol
69. N59W  3.08 kcal/mol
70. D18V  3.08 kcal/mol
71. N53M  3.07 kcal/mol
72. E31D  3.05 kcal/mol
73. W37C  3.04 kcal/mol
74. K46N  3.02 kcal/mol
75. N53I  2.98 kcal/mol
76. S52I  2.91 kcal/mol
77. V6F  2.89 kcal/mol
78. Y54C  2.85 kcal/mol
79. S20P  2.81 kcal/mol
80. K40S  2.8 kcal/mol
81. K26A  2.78 kcal/mol
82. S20C  2.77 kcal/mol
83. K28S  2.77 kcal/mol
84. E31G  2.77 kcal/mol
85. G34C  2.75 kcal/mol
86. K22D  2.71 kcal/mol
87. I14W  2.68 kcal/mol
88. E31K  2.67 kcal/mol
89. P10Y  2.66 kcal/mol
90. A7G  2.64 kcal/mol
91. H15D  2.54 kcal/mol
92. I4M  2.52 kcal/mol
93. K23Y  2.51 kcal/mol
94. K46S  2.48 kcal/mol
95. P10F  2.47 kcal/mol
96. L58Q  2.38 kcal/mol
97. L58P  2.38 kcal/mol
98. D17P  2.35 kcal/mol
99. K46I  2.34 kcal/mol
100. L30V  2.34 kcal/mol
101. K22Y  2.29 kcal/mol
102. A56N  2.24 kcal/mol
103. K46V  2.21 kcal/mol
104. W36S  2.15 kcal/mol
105. K46G  2.14 kcal/mol
106. L30T  2.04 kcal/mol
107. A56D  2.03 kcal/mol
108. K23P  2.02 kcal/mol
109. I50F  2.01 kcal/mol
110. K46T  1.95 kcal/mol
111. P10I  1.94 kcal/mol
112. G13M  1.91 kcal/mol
113. E47D  1.89 kcal/mol
114. L58G  1.84 kcal/mol
115. E47N  1.81 kcal/mol
116. M27I  1.74 kcal/mol
117. F21V  1.74 kcal/mol
118. V5L  1.66 kcal/mol
119. S20W  1.65 kcal/mol
120. A39M  1.64 kcal/mol
121. S52E  1.64 kcal/mol
122. G34L  1.52 kcal/mol
123. Y11C  1.5 kcal/mol
124. S41C  1.48 kcal/mol
125. G34Y  1.45 kcal/mol
126. K38N  1.45 kcal/mol
127. A7C  1.42 kcal/mol
128. A7S  1.39 kcal/mol
129. A39T  1.32 kcal/mol
130. G13N  1.32 kcal/mol
131. L8T  1.24 kcal/mol
132. G34W  1.24 kcal/mol
133. L8F  1.24 kcal/mol
134. E25W  1.22 kcal/mol
135. S20Y  1.22 kcal/mol
136. L8W  1.21 kcal/mol
137. G13E  1.2 kcal/mol
138. W37N  1.19 kcal/mol
139. S20L  1.15 kcal/mol
140. K40N  1.04 kcal/mol
141. T44R  0.922 kcal/mol
142. I4K  0.841 kcal/mol
143. Y11K  0.796 kcal/mol
144. E25M  0.74 kcal/mol
145. L42S  0.699 kcal/mol
146. P51E  0.647 kcal/mol
147. K45P  0.596 kcal/mol
148. G24Q  0.576 kcal/mol
149. A7M  0.441 kcal/mol
150. V6G  0.392 kcal/mol
151. S41Y  0.369 kcal/mol
152. Y11S  0.369 kcal/mol
153. V5R  0.357 kcal/mol
154. S41R  0.201 kcal/mol
155. A56P  0.083 kcal/mol
156. K38G  0.033 kcal/mol
157. V29W  -0.028 kcal/mol
158. I4P  -0.054 kcal/mol
159. V5G  -0.073 kcal/mol
160. L19R  -0.083 kcal/mol
161. F21Q  -0.217 kcal/mol
162. A39Y  -0.228 kcal/mol
163. E25L  -0.25 kcal/mol
164. V5K  -0.356 kcal/mol
165. V55H  -0.417 kcal/mol
166. Y54D  -0.435 kcal/mol
167. V55P  -0.707 kcal/mol
